Measured values as given in the nanobody polyreactivity screen of Harvey et al. (2022).

Experiment: yeast display, Sf9 membrane polyspecificity reagent, FACS + sequencing; frameworks hold sequencing errors
Summary of the method: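 Galactose induction of a Saccharomyces cerevisiae BJ5465 synthetic nanobody display library ran 36–48 hours. The cells were then stained for 1 hour at 4 °C with 10% biotinylated, detergent-solubilized Sf9 membrane reagent, pulled down on streptavidin microbeads and FACS-sorted into low and high (top ~1%) gates on expression and reagent-binding fluorescence. Labels for polyreactivity follow the gate of origin.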

| Sequence | polyreactivity (PSR sort gate) |
| --- | --- |
| QVQLVESGGGLVQAGGSLRLICAASGSIFYVNAMGWYRQEPGKERELVAGISRSGSSTYYADSVKGRFTISRDNAKNTVYLLMNSLKPEDTAVYYCNRVYQGRGWHDYWGQGTQVTVSS | high polyreactivity |
| QVQLVESGGGLVQAGGSHRLSCAASGQTVYYYPMGWYRQAPGKEREVVASISTGGNTYYADSVKGRFTISRDNAKNTVYLQMNSLKPEDTAVYYCAAGLYSWSGFASYNSAYGYWGQGTQVTVSS | low polyreactivity |
| QVQLVESGGGLVQAGGSLRLSCAASGSIFSDYAMGWYRQAPGKERELVAASTQSGGSTYADSLKGRFSISRDNAKNTVYLQMNSLKPEDTAVYYCADRHDKRRQYYVGQSAFDYWGQGTQVTVSS | low polyreactivity |
| QVQLVESGGGLVQAGGSLRLSCAASGIIFSANAMGWYRQAPGKERELVAAISRDGSTYYADSVKGRFTISRDNAKNTVYLQMNSLKPEDTAVYYCAVDPIYYWRPGYDYWGQGTQVTVSS | low polyreactivity |
| QVQLVESGGGLVQAGGSLRLSCAASGVYAMGWYRQAPGQEREWVAAITSVGSTNYADSVKGRFTISRDNAKNTVYLQMNSLKPEDTAVFYCNTDRDTDELDYWGQGTQVTVSS | low polyreactivity |
| QVQLVESGGGVVQAGGSLRLSGAASGITFSVNAMGWYRPAPGKEREFVAAISSSGGSTYYADSVKGRFTISRDNAKNTVYLQMNSLKPEDTAVYYCAVDYYSYYYEDDYWGQGTQVTVSS | high polyreactivity |
| QVQLVESGGGLVQAGGSLRLSCAASGSIFNTYAMGWYRQAPGKEREFVASISRSGGSTRYADSVKGRFTISRDNAKNTVYLQMNSLKPEDTAVYYCAARVPRGHVTYDYWGQGTQVTVSS | high polyreactivity |
| QVQLVESGGGLVQAGGSLRLSCAAAGSTFRYYAMGWYRHAPGKDRELVAAITSGGNTYNADSVKGRFTISRDNAKNTVYLLMNSLKPEDTAVYYCAAVGYLKYDNWGQGTQVTVSS | low polyreactivity |
| QVQLVESGGGLVQAGGSLRLSCAASGFIFSWNAMGWYRQAPGKERELVAVITWSGSRTNYADSVKGRFTISRDNAKNTVYLQMNSLKPEDTAVYYCATKGPVYTSSRPVSGGAYNYWGQGTQVTVSS | low polyreactivity |
| QVQLVESGGGLVQAGGSLRLSCAASGSIFARYAMGWDRQAPGKERELVAAISSRGGSTYYADSVKGRFTISRDNAKNTVYLQMNSLKPADTAVYYCNKGYLVRQGDYWGQGTQVTVSS | high polyreactivity |
| QVQLVESGGGLVQAGGSLRLSSAASGSTIRFNAMGWYRQAPGKERELVAVIRWRGGTTYYADSVKGRFTISRDNAKNTVYLQINSLKPEDSAVYYCNADYWFSYTWHGSYTVGYWGQGTQVTVSS | high polyreactivity |
| QVQLVESGGGLVQAGGSLRLSCAASGRISRGYAMGWYRQAPGKERELVAAIDSDGDTNYADSVKGRFTISRDNAKNTVYLQMNSLKPEDTAVYYCNKDGAYKTAYKRWTLYDYWGQGTQVTVSS | low polyreactivity |
| QVQLVESGGGLVQAGGSLRLSCAASGITFYYYAMGWYRQEPGKERELVAAINWSGTSTYYADSVKGRFTISRDNAKNTVYLQMNSLKPEDTAVYYCNAERGRSFWWAYDYWGQGTQVTVSS | low polyreactivity |
| QVQLVESGGGLVQAGGSLRLSCAASGSTFQRNAMGWYRQAPGKERELVAVITRRGASTYYADSVKGRFTISRDNAKNTVYLQMKSLKPEDTAVYYCNKVPYGRDHHLLFDYWGQGTQVTVSS | high polyreactivity |
| QVQLVESGGGLVQAGGSLRLSCAASGSTFYYNDMGWYRQAPGKERELVAAIRTSGSTNYADSVKGRFTISRDYAKNNVYLQMNSLKPEDTAVYYCNAVVRHWFPGWYGRGDDYWGQGTQVTVSS | low polyreactivity |
| QVQLVESGGGLVQAGGSLRLSCAASGRIFRYYAMGWYIQAPGKERELVAAITRGGSTNYADSVKGRFTISRDNAKNTVYLQMNSLKPEDTAVYYCAARRQGRSGNGSWGQGTQVTVSS | high polyreactivity |
| QVQLVESGGGLVQAGGSLRLICAASGSILYYYVMGWYRQAPGKERQLVAAITSGGSTYYADSVKGRFTISRDNAKNNVYLQMNSLKPEDTAVYYCAVRPRRQYSPSRWGTGCYWGQGTQVTVSS | high polyreactivity |
| QVQLVESGGGLVQAGGSLRLSCAASGSIFPSYAIGWYRQAPGKERELVATIGRGGTTNYADSVKGRFTISRDNAKNTVYLQMNSLKPEDTSVYYCNAERIWRYKYGYDYWGQGTQVTVSS | high polyreactivity |
| QDQLVESGGGLVQAGGSLSLSCAASGSTFLTNAMGWYRQAPGKERELVAAISRRGGNTYYADSVKGRFTISRDNAKNTVYLQMNSMNPEDTAVYYCNAVTPTTLGDYWGQGTQVTVSS | high polyreactivity |
| QVQLVESGGGLVQAGGSLRLSCADSGSTFEANAMGWYRQAPGKERELVAAISSGGRTYYADSEKGRFTISRDNAKNTVYLKRNSLKPEDTAVYYCAAYVRRGFDWGQGTQVTVSS | high polyreactivity |
| QVQLVESGGGLVQAGGSLRLSCAASGITFKYYAMGWYRQAPGKERELVAAINWSGDRTYYADSVKGRFTISRDNAKNTVYLQMNSLKPEDTAVYYCAATAWPGRYWRQEVDYWGQGTQVTVSS | high polyreactivity |
| QVQLVESGGGLVQAGGSLRLSCAASGRIFIGYAMGWYRQAPGKERELVAAITSGGRTYYADSVKGRFTISRDNAKNTVYLQMNSLKPEDTAVYYCYRAAFRYRYDYWGQGTQVTVSS | high polyreactivity |

| Sequence | polyreactivity (PSR sort gate) |
| --- | --- |
| QVKLVESGGGLVQAGGSLRLSCAASGTFYYNTMGWYIQAPGTERELVAAITSGGRTYADSVKGRFTISRDNAKNTVYLQMNSLKPEDTAVYYCAASWYFFSPGGTFGYWGQGTQVTVSS | low polyreactivity |
| QVQLVESGGGLVQAGGSLRLSCAASGRIFSVYVMGWYRQAPGKERELVAAITRSGGRTYYADSVKGRFTISRDNAKNTVYLQMNSLKPDDTAVYYCAARVKGYAYNYWGQGTQVTVSS | high polyreactivity |
| QVQLQESGGGLVQAGGSLRLICAASCTISQEDWMGWYRQAPGKEREFVAAIGLGSNTNYADSLKGRFTISRDNAKITVYLQMNSLKPEDTAVYYCNNDSTNNPFQYDYWGQGTQVTVSS | low polyreactivity |
| QVQLVESGAGLVQARGSLRLSCAASGIILYVNAMGWYRQAPGKERELVAAISWGGGSTYYADSVKGRFTISRDNAKNNVYLQMNSLKPEDTAVYYCAAEFWSGYPTYTYDFWGQGTQVTVSS | low polyreactivity |
| QVQLVESGGGLVQAGGSLRLSCAASGRIFSRYAMGWYRQAPGKERELVATISSGGGTYYADSVKGRFTISRDTAKNTVYLQMNSLKPEDTAVYYCAAASYSGHGRYDDWGQGTQVSVSS | high polyreactivity |
| QVQLVESGGGLVQAGGILRLSCASSGNIFDRYAMGWYRQAPGKERELVAGITWSGGSTYYADSVKGRFTISRDNEKNTVYLQMNSLKPEDTAVYYCGQANYYWGQGTQVTVSA | low polyreactivity |
| QFQLDESGGGLVQAGGSLRLSCAASGLTFSIYAMGWYRKARGKERELVAAITGRGGRTYYADSVKGRFTISRENAKNTVYLQMKSLKPEDTAFYYCADRYRGTDFDYWGQGTQVTVSS | high polyreactivity |
| QVQLVESGGGLVQAGGSLRLSCAASGITFKTYTMGWYRQAPGKERELVAAITRSGAGTYYADSVKGRFTISRDNAKNTVDLQMNSLKPEDTAVYYCAARVRWGYRYGYWGQGTQVTVSS | high polyreactivity |
| QVQLVESGGGLVQAGGSLRLSCAASGSISDVYTMGWYRQAPGKERELVAANSFSGDSTYYADSVKGRFTISRDNAKNTVYLQMNSLKPEDTAVYYCATDVGYVYGYYYWGQGTQVTVSS | low polyreactivity |
| QVQLVESGGGLVQAGGSLRLSCAASGRIYYPYAMGWYRQAPGKERELVASINYRGGSTYYADSVKGRFTISRDNAKNTVYLQMNSLKPEDTAVYYCAARFYWKYWRYDYWGQGTQVTVSS | high polyreactivity |
| QVQLVESGGGLVQAGGSLRLSCAASGRIFYGYAMGWYRQAPGKERELVAASRYSGGSTYADSVKGRFTISRDNAKNTVFLQMNSLKPEVTAVYYCAAGDAPYVAWDQYQDNVFRYDYWGQGTQVTVSS | low polyreactivity |
| QVQLVESGGGLVQAGGSLRLSCAASGIMFFYYAMGWYRQAPGKERELVAAISNSDTSTSYADSVKGRFTISRDNAKNSVYFQMNSLKPEDTAVYYCNADSPSLSGDYWGQGTQVTVSS | low polyreactivity |
| QVQLVESGGGLVQAGGSLRLSCAASGRTFYGNAMGWYRQAPGKEREFVAGISWRGGRTYYADSVKGRFTISRDNAKNTVYLQMNSLKPEDTAVYYCAASAGYRGRKQYHENGYWGQGTQVTVSS | high polyreactivity |
| QVQLVESGGGLVQAGGSLRKSCAASGSIFADKAMGWYRQAPGKERELVATISAPDGSTYYADYVKGRFTISGDNAKNTVYLQMNSLKPEDTAVYYCAASGYYILSWRYDYWGQGTQVTVSS | low polyreactivity |
| QVQLVESGGGLVQAGGSLRLSCAASGSTFYHYAMGWYRQAPGKERELVATISRRGGSTYYADSVKGRFTISRDNAKNTVYLQMNSLKPEDTAVYYCAAEYARSSRYKISSEMYYWGQGTQVTVSS | high polyreactivity |
| QVQLVESGGGLVQAGGSLRLSCAASGYIFFGNAMGWYRQAPGKERELVAAIRRRGTSTYYADSVKGRFTISRDNAKNTVYLQMNSLKPEDTAVYYCAADVVRSNFYGTFLYDYDYCGQGTQVTVSS | low polyreactivity |
| QVQLVESGGGLVQAGGSLRLSCAASGSTFGYYAMGWYRQAPVKERELVAAISAGDRTYYADSVKGRFTISRDNATNTLYLQMNSLKPEDTAVYYSAARPLRSRNGYYWGQGTQGTVSS | high polyreactivity |
| QVQLVESGGGLVQAGGSLRLSCAASGRIFYSYVMGWYRQAPGKERELVAAIRWGGGSTYYADSVKGRFTISPDNPKNTVYLQMNSLKPEDTAVYYCAAAYNWRKYDYWGQGTQVTVSS | high polyreactivity |
| QVQLVESGGVLVQAGGSLRLSCAASGSIFYSYAMGWYRQAPGKDRELVAAITRSGGSTYYADSVKGRFTISRENAKNTVYVQMHSLKPEDTAGYYCNARGKGDYYWGQGTQVTVSS | high polyreactivity |
| QVHLVESGGGIVQAGLSLRLSCAASGRTFVVNAMGWYRQAPGKERELVAAISYSGGRTYYADSVKGRFTISRDIAKNTVYLKMNSLKPEDTAVYYCAAQSRYGGKFYYWGQGTQVTVSS | high polyreactivity |
| QVQLVESGGGLVQAGGSLRLSCAASGSIFYPYAMGWYRQAPGKERELLASITINDGSTYYADSVKGRFTISRDNAKNTVYLQMNSLKPEDTAVYYCNVEPVPGFGSEYEYWGQGTQVTVSS | low polyreactivity |
